System: MS2 coat protein
Test: apparent KD of MS2 coat protein; designed switch direction (-1 OFF switch, 1 ON switch): -1; higher = weaker reporter binding
Method in brief: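 RNA switches sharing common flanks were transcribed by stalled E. coli RNA polymerase on Illumina chips. A doubling series of SNAP-549-labelled MS2 coat protein, from 0.7 or 1.5 nM to 3 µM, was applied in Tris-HCl pH 7.5 buffer with KCl, MgCl2, BSA, DTT, tRNA and Tween-20. Each step lasted 0.8–1.5 h at the bottom of the series and 10–20 min at the top. Normalised cluster fluorescence was curve-fitted, giving apparent KD as the per-design median over clusters.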

[1] = Eterna round: R95, input ligand: microRNA oligo, concentration not stated
[2] = input ligand: microRNA oligo, concentration not stated

| Sequence | apparent KD of MS2 coat protein [1] [nM] | apparent KD of MS2 coat protein (input ligand: FMN 200 uM) [nM] | apparent KD of MS2 coat protein (input ligand: none) [nM] | apparent KD of MS2 coat protein [2] [nM] | apparent KD of MS2 coat protein (Eterna round: R95, input ligand: FMN 200 uM) [nM] | apparent KD of MS2 coat protein (Eterna round: R95, input ligand: none) [nM] |
| --- | --- | --- | --- | --- | --- | --- |
| UCUAGACAUGAGGAUCACCCAUGUGAGGAUAUGAUGCGAUCGUCGAAAGACGAUAGCAUCAGAAGGCACGUAUG [Fiskers Ex 1 - 14] (puzzle: Exclusion 1) | 54.4 | – | – | – | – | – |
| UCUAGGAGAGGAUAUACAUGAGGAUCACCCAUGUGCAUGAUCAGGCGUCAGUCGCACCGUAGAAGGUUCCAGAA [Eternabot (L2) Solution 40] (Eterna round: R97, puzzle: Exclusion 3) | – | 89.9 | 47 | – | – | – |
| UCUAGUUGGUAAGGAUAUCCUACAUUGUUCUGGCCCGGGCAUGCUACAUGAGGAUCACCCAUGUGGGAGAAGGUGCGUCAUUGC [Design 21] (Eterna round: R96, puzzle: Exclusion NG 2) | – | 44.6 | 61.9 | 32.2 | – | – |
| UCUAUGAUGCGAGGAUAUCGACCAUUCCUCUUUACAUGAGGAUCACCCAUGUUCGUACGCUACAACGAGAAGGCGCACUAAGUU [JR_ExcNG2_Sub060] (Eterna round: R96, puzzle: Exclusion NG 2) | – | 292 | 157 | 131 | – | – |
| UCUCGAUGGCAAGGAUAUCCUACAUUGUUCUGGCCCGGGCAUGCUACAUGAGGAUCACCCAUGUGGGAGAAGGUGCGCCACUGC [Design 26] (Eterna round: R96, puzzle: Exclusion NG 2) | – | 118 | 93.3 | 55 | – | – |
| UCUCGCGGGCAAGGAUAUCCUACGCUGUUCUGGCCCGUGUAUGUUACAUGAGGAUCACCCAUGUGGGAGAAGGUGCACCAGGGC [Design 40] (Eterna round: R96, puzzle: Exclusion NG 2) | – | 83.3 | 76 | 39.3 | – | – |
| UCUGGUCGAGGAUAUACAUUCGUGCUUCGGCACGUAAGAUCACAUGAGGAUCACCCAUGUAGAAGGCGACCAGA [E2/5-A3] (Eterna round: R97, puzzle: Exclusion 2) | – | 1050 | 98.8 | – | – | – |
| UCUGGUCGAGGAUAUGCAAUCGUGCUUCGGCACGUAAGGUCACAUGAGGAUCACCCAUGUAGAAGGCGACCAGA [E2/4-A3] (Eterna round: R97, puzzle: Exclusion 2) | – | 34.4 | 17.3 | – | – | – |
| UCUGGUCGGAAGGAUAUGGUCGGGUCAAAUCGUCCAGAAGGUCUGACAUGAGGAUCACCCAUGUGAGUCCAAAG [Ataesma] (puzzle: Exclusion 6) | 20.4 | – | – | – | 77.5 | 21.8 |
| UCUGUUCAAGGAUAUGCGUAAGGUGUUACGGCACCAGGUCUACAUGAGGAUCACCCAUGUAGAAGGUGAUCAGA [EX2 #88] (Eterna round: R97, puzzle: Exclusion 2) | – | 22.4 | 20.3 | – | – | – |
| UCUUUGUCAGGAUAUCGUGCAUACAACGAAAGUUCUAUGUGCGAGAAGGGACAUGAGGAUCACCCAUGUUACGG [Omei Ex4 A4] (Eterna round: R97, puzzle: Exclusion 4) | – | 244 | 358 | – | – | – |
| UGAAAAGACCUAGGAUAUACCCAGUGGGUAGAGGGUCAGAAUAAUAAAACAUGAGGAUCACCCAUGUAGAAGGAGGGAAAGAAG [Laerxe] (Eterna round: R96, puzzle: Exclusion NG 2) | – | 48.3 | 59.4 | 42 | – | – |
| UGAACAUGAGGAUCACCCAUGUGGUUAGGUGAAAUCCUGCUGGAGGAUAUAAGUCCUGGUGCCGCUUAGAAGGCCAGCUGACAG [Eternabot solution 48] (Eterna round: R96, puzzle: Exclusion NG 3) | – | 72 | 82.5 | 56.7 | – | – |
| UGACACACCUGAGGAUAUUCUGAACGUUUCCCAGAAGAAGGUAGGUACAGCGGGAGCGCCACAUGAGGAUCACCCAUGUCUACC [Eternabot solution 46] (Eterna round: R96, puzzle: Exclusion NG 1) | – | 126 | 142 | 103 | – | – |
| UGAGCAAGAGGAUAUACAUGACGUGCCGUAGCACGAGGUCUACAUGAGGAUCACCCAUGUAGAAGGCUUGUUCU [Mat - Exclusion 2 - JL Mod - D5] (Eterna round: R97, puzzle: Exclusion 2) | – | 170 | 34.2 | – | – | – |
| UGAGCUACAGGAUAUAUAUGGCGACCGUGAGGUCGAAGGUUACAUGAGGAUCACCCAUGUAGAAGGGUAGUUCU [Mat - Exclusion 2 - JL Mod - D17] (Eterna round: R97, puzzle: Exclusion 2) | – | 225 | 86.2 | – | – | – |
| UGAGCUUGAGGAUAUACAAGCUUGAGCUGAAAAGUUCGAGUACAUGAGGAUCACCCAUGUAGAAGGCGAGUUCG [-26.7, -25.2 kcal, A 31% 1bis and 1] (Eterna round: R97, puzzle: Exclusion 2) | – | 39.7 | 26 | – | – | – |
| UGAGGACAUGAGGAUCACCCAUGUAAGGAUAUGCGGAGAGUUUGGAGAGGUUGAGGAGGCAGAAGGUACGGGAU [JR_Exclu1_Sub046] (Eterna round: R96, puzzle: Exclusion 1) | – | 144 | 103 | 47.4 | – | – |
| UGAGGACAUGAGGAUCACCCAUGUAAGGAUAUGCGGAGAGUUUGGAGAGGUUGAGGAGGCAGAAGGUACGGGAU [JR_Exclu1_Sub046] (puzzle: Exclusion 1) | 102 | – | – | – | – | – |
| UGAGUGCUGCGAGGAUAUACAUGAGGAUCACCCAUGUAAAAGUGUGAGGCUUUGCCUCACACUAUGUAGAAGGCGCAGUACUCU [JL ENG2 1.04] (Eterna round: R96, puzzle: Exclusion NG 2) | – | 17.6 | 13.6 | 10.6 | – | – |
| UGAGUGCUGCGAGGAUAUACAUGAGGAUCACCCAUGUAAACGUGUGAGGCUUUGCCUCACACGAUGUAGAAGGCGCAGUACUCU [JL ENG2 1.05] (Eterna round: R96, puzzle: Exclusion NG 2) | – | 18.4 | 14 | 9.25 | – | – |
| UGAUCAAAUGUCAGGAUAUGCUGUUGUAAUCAACAGCAGAAGGGACAUGAGGAUCACCCAUGUCUUGUCGAUUU [Magic-03] (puzzle: Brourd's mod of Exclusion 4) | 13.8 | – | – | – | – | – |
| UGAUCAGACCGAGGAUAUACAGGGAGCACGCACGUGAGUGCGUGCACUACAUGAGGAUCACCCAUGUAGAAGGCGGUCUGAUCU [JL ENG2 1.00] (Eterna round: R96, puzzle: Exclusion NG 2) | – | 268 | 19.3 | 16.1 | – | – |
| UGAUCAGACCGAGGAUAUACAUGUAGGACCCACGUGAGUGGGUCCAUUACAUGAGGAUCACCCAUGUAGAAGGCGGUCUGAUCU [JL ENG2 1.90] (Eterna round: R96, puzzle: Exclusion NG 2) | – | 313 | 139 | 97.7 | – | – |
| UGAUCAGACCGAGGAUAUAUAUGGAGGACCCACGUGAGUGGGUCCACUACAUGAGGAUCACCCAUGUAGAAGGCGGUCUGAUCU [JL ENG2 1.86] (Eterna round: R96, puzzle: Exclusion NG 2) | – | 29.5 | 13.3 | 9.64 | – | – |

From the supplement of paper PMC9170038
